B1: 7I13 (antibody, V domains shown)
VH: QVQLVESGGGVVQPGRSLRLSCAASGFTFSNYGMHWVRQGPGKGLEWVAVISYDASSKYYTDSVQGRFTISRDNSKNTLFLQMNSLRGEDTAVYYCAKALRYLDWFLSDPFDYWGQGTLVTVSS
VL: EIVLTQSPGTLSLSPGERATLSCRASQSVSSDFLAWYQQKPGQAPRLLIYGASSRATGIPDRFSGSGSGTDFTLTISRLEPEDFAVYYCQQYAASPPFGQGTRLEIK
notes: human IgG mAb
B2: 9I6 (antibody, V domains shown)
VH: EVQLVQSGAEVKKPGESLKISCRESGDTFPAYWIAWVRQMPGKGLEWMGIIYPIDSETTYSPSFQGQVTISADKSINTAYLQWSSLKASDSAIYYCARGTSTGLREAFHIWGQGTMVTVSS
VL: DVVMTQSPLSLAVTLGQPAYISCRSSQSLGYSDGNTYLNWFQQRPGQSPRRLIYEVSNRDSGVPDRFSGSGSGTDFTLKISRVEAEDVGTYYCMQGTHWPPMCSFGQGTKLEIK
notes: human IgG mAb; also called 9I6-biotin; 916
B3: 7B13 (antibody, V domains shown)
VH: QVQLVESGGGVVQPGGSLRLSCAASGFSFSNYGMHWVRQAPGKGLEWVALIPSDGNYQYYTDSVKGRFTVSRDNSRNTLYLQMKSLRAEDTARYHCAHLGGGLFDFWGQGTLVTVSS
VL: QSALNQPRSVSGSPGQSVSISCTGSSSDVGGYEFVSWYQHHPGKAPKLIIYDVDKRPSGVPDRFSGSRSGDTASLTISGLQAEDEADYYCYSSADTWVFGGGTKLTVL
notes: human IgG mAb
B4: 8J16 (antibody, V domains shown)
VH: QVQLQESGPGLVKPSETLSLTCSVSGGFTSSYYWSWIRQAPGKGLEWIGYVYYGESTDYNPSLKSRATISIDTSKNQFSLKLSSVTAADTAVYYCAREVDKRGFDYWGQGALVTVSS
VL: EIVLTQSPGTLSLSPGERATLSCRASQSVSGGYLAWYQQEPGQAPRLVIYGASSRATGIPDRFSASGSGTDFTLTITRLEPEDFAVYYCQQYGRTPLTFGGGTKVEIK
notes: human IgG mAb; also called 8J16-biotin
B5: 2C12 (antibody, V domains shown)
VH: QITLRESGPTLVKPTQTLTLTCTFSGFSLNTNGVGVGWIRQPPGKALEWLALIYWNGNEGYSPSLKSRLTITKDTSKNQVVLTMTNMDPVDTATYYCVHWPQGLTTVTRLAFDIWGQGTMVTVSS
VL: QSALTQPRSVSGSPGQSVTISCTGTTSDVGRYNFVSWYQQHPGKAPKLLMYDVSQRPSGVPSRFSGSKSGNTASLTISGLQAEDEAVFYCCSYAGGNFFSYVFGTGTKVTVL
notes: human IgG mAb; also called 2C12-biotin
B6: 8C15 (antibody, V domains shown)
VH: QVQLQESGPGLVKPSETLSLTCTVSGGSIRSYYWSWIRQPPGKGLEWIGHIYYSGNTNYSPSLQSRVTISLDTPKNQFSLRLSSVTAADTAVYYCARHDVIVVRGVFDVWGQGTVVTVSS
VL: QSALTQPASVSGSPGQSITISCTGTSSDIGTYNLVSWYQQHPGKAPKVLIYDGSKRPSGVSSRFSASKSGNTASLTISGLQAEDETDYYCCSYAGTSDFFVVFGGGTKLTVL
notes: human IgG mAb; also called 8C15-biotin

How the values were obtained:
[1] = biological target: T1, hCMV gH, gL, UL128, UL130 and UL131A co-expressed in HEK293T cells (human cytomegalovirus, UniProt P12824 24-743; P16832 31-278; P16837 1-171; P16772 1-214); test: cell cross-competition, 20x excess; competitor 9I6-biotin
T1 construct: whole, on cells; also called gH + gL + UL128 + UL130 + UL131A; gH/gL/UL128-130 complex

[2] = biological target: T1, hCMV gH, gL, UL128, UL130 and UL131A …; test: cell cross-competition, 20x excess; competitor 8I21-biotin
[3] = biological target: T1, hCMV gH, gL, UL128, UL130 and UL131A …; test: cell cross-competition, 20x excess; competitor 2C12-biotin
[4] = biological target: T1, hCMV gH, gL, UL128, UL130 and UL131A …; test: cell cross-competition, 20x excess; competitor 8J16-biotin
[5] = biological target: T1, hCMV gH, gL, UL128, UL130 and UL131A …; test: cell cross-competition, 20x excess; competitor 6G4-biotin
[6] = biological target: T2, hCMV UL128, UL130 and UL131A co-expressed in HEK293T cells (human cytomegalovirus, UniProt P16837 1-171; P16772 1-214); test: cell-based or functional assay
T2 sequence (P16837 whole entry, chain 1 of 2): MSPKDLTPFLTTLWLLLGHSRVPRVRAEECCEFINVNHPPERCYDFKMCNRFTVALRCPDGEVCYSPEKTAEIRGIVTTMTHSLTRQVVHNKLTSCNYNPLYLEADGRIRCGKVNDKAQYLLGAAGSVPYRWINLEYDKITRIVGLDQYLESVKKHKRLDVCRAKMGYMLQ
T2 sequence (P16772 whole entry, chain 2 of 2): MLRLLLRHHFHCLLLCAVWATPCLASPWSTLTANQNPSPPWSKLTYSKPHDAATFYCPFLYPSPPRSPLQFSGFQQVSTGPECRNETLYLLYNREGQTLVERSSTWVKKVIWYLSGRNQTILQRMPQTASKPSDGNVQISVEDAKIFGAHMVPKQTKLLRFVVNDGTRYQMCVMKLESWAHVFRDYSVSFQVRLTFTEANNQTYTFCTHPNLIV

[7] = biological target: T1, hCMV gH, gL, UL128, UL130 and UL131A …; test: cell cross-competition, 20x excess; competitor 1F11-biotin
[8] = biological target: T1, hCMV gH, gL, UL128, UL130 and UL131A …; test: cell cross-competition, 20x excess; competitor 8C15-biotin
[9] = biological target: T2, hCMV UL128, UL130 and UL131A …; test: cell-based or functional assay; remark: listed apart in the source
[10] = biological target: T1, hCMV gH, gL, UL128, UL130 and UL131A …; test: cell cross-competition, 20x excess; competitor 4I22-biotin
[11] = biological target: T1, hCMV gH, gL, UL128, UL130 and UL131A …; test: cell cross-competition, 20x excess; competitor 2F4-biotin
[12] = biological target: T1, hCMV gH, gL, UL128, UL130 and UL131A …; test: cell cross-competition, 20x excess; competitor 10F7-biotin
[13] = biological target: T1, hCMV gH, gL, UL128, UL130 and UL131A …; test: cell cross-competition, 20x excess; competitor 4N10-biotin
[14] = biological target: T1, hCMV gH, gL, UL128, UL130 and UL131A …; test: cell cross-competition, 20x excess; competitor 15D8-biotin
[15] = biological target: T1, hCMV gH, gL, UL128, UL130 and UL131A …; test: cell cross-competition, 20x excess; competitor 5A2-biotin

| Binder | Inhibition of binding (%) [1] [%] | Inhibition of binding (%) [2] [%] | Inhibition of binding (%) [3] [%] | Inhibition of binding (%) [4] [%] | Inhibition of binding (%) [5] [%] | 90% Neutralization ARPE (hCMV VR1814) [6] [µg/mL] | 90% Neutralization MRC-9 (hCMV VR1814) [6] [µg/mL] | Inhibition of binding (%) [7] [%] | Inhibition of binding (%) [8] [%] | 50% Neutralization ARPE (hCMV VR1814) [9] [µg/mL] | 50% Neutralization MRC-9 (hCMV VR1814) [9] [µg/mL] | Inhibition of binding (%) [10] [%] | Inhibition of binding (%) [11] [%] | Inhibition of binding (%) [12] [%] | Inhibition of binding (%) [13] [%] | Inhibition of binding (%) [14] [%] | Inhibition of binding (%) [15] [%] |
| --- | --- | --- | --- | --- | --- | --- | --- | --- | --- | --- | --- | --- | --- | --- | --- | --- | --- |
| B1 | 0 | 0 | 0 | 0 | 0 | 0.008 | > 10 | 0 | 0 | < 0.01 | > 2 |  |  |  |  |  |  |
| B2 | 100 | 0 | 100 | 100 | 100 | 0.0007 | > 10 | 0 | 100 | < 0.001 | > 2 | 0 | 0 |  |  |  |  |
| B3 | 100 | 0 | 100 | 100 | 100 | 0.003 | > 10 |  | 100 | < 0.001 | > 2 |  |  |  |  |  |  |
| B4 | 70 | 0 | 100 | 100 | 100 | 0.0008 | > 10 | 0 | 100 | < 0.001 | > 2 | 0 | 0 |  |  |  |  |
| B5 | 100 | 0 | 100 | 100 | 100 | 0.006 | > 10 | 0 | 100 | < 0.01 | ≤ 2 | 0 | 0 | 0 | 0 | 0 | 0 |
| B6 | 100 | 0 | 100 | 100 | 100 | 0.0025 | > 10 |  | 100 | < 0.001 | > 2 | 0 |  |  |  |  |  |

— patent US20100092481A1 (INSTITUTE FOR RESEARCH IN BIOMEDICINE, published 2010)
